Assay results from paper PMC6321125, “Characterization of a Carbonyl Reductase from Rhodococcus erythropolis WZ010 and Its Variant Y54F for Asymmetric Synthesis of (S)-N-Boc-3-Hydroxypiperidine” (Molecules, 2018).

Experiments:
Experiment in all cases: purified protein
purified protein [1] = substrate: CC(C)O; conditions: apparent, 0.4 mM NAD+, standard assay 50 mM CAPSO pH 10.0, 50 °C
purified protein [2] = substrate: CC(C)(C)OC(=O)N1CCCC(=O)C1; type: biochemical, Rhodococcus erythropolis; conditions: apparent, 0.4 mM NADH, standard assay 50 mM PIPES pH 6.0, 60 °C
purified protein [3] = substrate: CC(C)=O; type: biochemical, Rhodococcus erythropolis; conditions: apparent, 0.4 mM NADH, standard assay 50 mM PIPES pH 6.0, 60 °C
purified protein [4] = substrate: CCCCCCC(C)=O; type: biochemical, Rhodococcus erythropolis; conditions: apparent, 0.4 mM NADH, standard assay 50 mM PIPES pH 6.0, 60 °C
purified protein [5] = substrate: CCCCCCC(C)O; type: biochemical, Rhodococcus erythropolis; conditions: apparent, 0.4 mM NAD+, standard assay 50 mM CAPSO pH 10.0, 50 °C

Protein | Km (purified protein [1]) [µM] | Vmax (purified protein [1]) [µmol/min/mg] | kcat (purified protein [1]) [s⁻¹] | kcat/Km (purified protein [1]) [M⁻¹ s⁻¹] | Km (purified protein [2]) [µM] | Vmax (purified protein [2]) [µmol/min/mg] | kcat (purified protein [2]) [s⁻¹] | kcat/Km (purified protein [2]) [M⁻¹ s⁻¹] | Km (purified protein [3]) [µM] | Vmax (purified protein [3]) [µmol/min/mg] | kcat (purified protein [3]) [s⁻¹] | kcat/Km (purified protein [3]) [M⁻¹ s⁻¹] | Km (purified protein [4]) [µM] | Vmax (purified protein [4]) [µmol/min/mg] | kcat (purified protein [4]) [s⁻¹] | kcat/Km (purified protein [4]) [M⁻¹ s⁻¹] | Km (purified protein [5]) [µM] | Vmax (purified protein [5]) [µmol/min/mg] | kcat (purified protein [5]) [s⁻¹] | kcat/Km (purified protein [5]) [M⁻¹ s⁻¹]
ReCR (Rhodococcus erythropolis; G336R/K233S/K67R/N94S/Q110S) (protein) MKAIQYTRIGAEPELTEIPKPEPGPGEVLLEVTAAGVCHSDDFIMSLPEEQYTYGLPLTLGHEGAGRVAAVGEGVEGLDIGTNVVVYGPWGCGSCWHCSQGLENYCSRASELGINPPGLGAPGALAEFMIVDSPRHLVPIGDLDPVKTVPLTDAGLTPYHAIKRSLPKLRGGSYAVVIGTGGLGHVAIQLLRHLSAATVIALDVSADKLELATKVGAHEVVLSDKDAAENVRSITGSQGAALVLDFVGYQPTIDTAMAVAGVGSDVTIVGIGDGQAHAKVGFFQSPYEASVTVPYWGARNELIELIDLAHAGIFDIAVETFSLDNGAEAYRRLAARTLSGRAVVVPGL | 1460 ± 60 | 23.5 | 14.2 | 9740 | 1740 ± 80 | 104 | 62.6 ± 1.49 | 36000 ± 860 | 46060 ± 2620 | 66.3 | 40.1 ± 1.98 | 870 ± 40 | 3290 ± 50 | 236 | 142 ± 3.11 | 43300 ± 950 | 4940 ± 450 | 107 | 64.4 ± 1.66 | 13000 ± 340
ReCR (Rhodococcus erythropolis; G336R/K233S/K67R/N94S/Q110S/Y54F) (protein) MKAIQYTRIGAEPELTEIPKPEPGPGEVLLEVTAAGVCHSDDFIMSLPEEQYTFGLPLTLGHEGAGRVAAVGEGVEGLDIGTNVVVYGPWGCGSCWHCSQGLENYCSRASELGINPPGLGAPGALAEFMIVDSPRHLVPIGDLDPVKTVPLTDAGLTPYHAIKRSLPKLRGGSYAVVIGTGGLGHVAIQLLRHLSAATVIALDVSADKLELATKVGAHEVVLSDKDAAENVRSITGSQGAALVLDFVGYQPTIDTAMAVAGVGSDVTIVGIGDGQAHAKVGFFQSPYEASVTVPYWGARNELIELIDLAHAGIFDIAVETFSLDNGAEAYRRLAARTLSGRAVVVPGL | 1030 ± 50 | 35.3 | 21.3 | 20700 | 1730 ± 50 | 141 | 85.1 ± 3.94 | 49200 ± 2280 | 37320 ± 560 | 90.5 | 54.7 ± 1.02 | 1470 ± 30 | 3110 ± 120 | 274 | 165 ± 4.58 | 53200 ± 1470 | 1370 ± 80 | 128 | 77.5 ± 1.88 | 56600 ± 1370
